In publication PMC4506539, “Crystallographic structure of a small molecule SIRT1 activator-enzyme complex” (Nature Communications, 2015):
One block for each binder: values may come before it.

Assays:
[1] = target: T1, hSIRT1 catalytic core, residues 229–516 (human, UniProt Q96EB6 229-516); test: cell-based or functional assay
T1 sequence (looked up): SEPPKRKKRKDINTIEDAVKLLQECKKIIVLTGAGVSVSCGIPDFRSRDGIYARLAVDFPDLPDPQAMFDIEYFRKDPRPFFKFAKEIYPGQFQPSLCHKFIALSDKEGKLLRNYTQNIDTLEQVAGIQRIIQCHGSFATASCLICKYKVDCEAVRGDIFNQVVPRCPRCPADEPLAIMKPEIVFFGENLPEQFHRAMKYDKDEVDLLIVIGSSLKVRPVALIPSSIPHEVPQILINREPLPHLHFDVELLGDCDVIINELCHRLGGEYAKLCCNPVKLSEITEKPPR

full-length human SIRT1 = target: T2, full-length human SIRT1 (human, UniProt Q96EB6 1-747); test: HDX-MS; 0.77 mg/ml full-length SIRT1 ± 3.88 mM Ac-p53(W5) ± 192 μM STAC 1 in 1.9% DMSO, mixed 1:1 with 100 mM phosphate pH read 7.0 in D2O; 0 °C, 15-5,000 s; settings: both partners purified
T2 construct: human SIRT1, full length, 747 amino acids; also called hSIRT1; wild-type hSIRT1
T2 sequence (looked up): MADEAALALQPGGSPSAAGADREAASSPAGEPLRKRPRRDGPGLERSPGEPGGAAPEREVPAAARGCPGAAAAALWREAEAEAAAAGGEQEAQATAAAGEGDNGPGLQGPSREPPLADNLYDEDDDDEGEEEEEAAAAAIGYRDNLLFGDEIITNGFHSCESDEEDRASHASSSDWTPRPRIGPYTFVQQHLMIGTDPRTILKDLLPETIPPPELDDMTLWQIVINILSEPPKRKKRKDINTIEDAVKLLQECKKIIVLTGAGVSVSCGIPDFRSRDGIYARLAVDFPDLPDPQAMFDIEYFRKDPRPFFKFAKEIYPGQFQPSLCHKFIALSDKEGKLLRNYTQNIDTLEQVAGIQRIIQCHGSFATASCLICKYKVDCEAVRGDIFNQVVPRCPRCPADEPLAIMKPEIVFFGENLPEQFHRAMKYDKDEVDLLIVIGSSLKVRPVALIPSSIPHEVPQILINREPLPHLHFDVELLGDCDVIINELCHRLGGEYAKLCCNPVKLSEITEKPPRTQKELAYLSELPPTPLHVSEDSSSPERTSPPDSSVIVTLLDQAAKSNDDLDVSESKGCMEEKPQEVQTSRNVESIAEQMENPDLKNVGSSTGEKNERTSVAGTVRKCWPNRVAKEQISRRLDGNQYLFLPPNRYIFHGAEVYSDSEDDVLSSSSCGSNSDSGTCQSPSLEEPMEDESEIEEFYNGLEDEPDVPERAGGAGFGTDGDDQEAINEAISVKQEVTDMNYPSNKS

- deacetylase activity of hSIRT1cd after addition of the CTR peptide, relative to full-length hSIRT1 (∼15% without the peptide) [1]: 80 % of the activity of full-length hSIRT1
Binder: QYLFLPPNRYIFHGAEVYSDSEDDV (peptide, UniProt Q96EB6 641-665, looked up) [human C-terminal regulatory segment (CTR) peptide of SIRT1]

- binding result (full-length human SIRT1): binds
B1: Ac-p53(W5) (Ac-RHKKAcW-NH2) (peptide)
peptide: Ac-RHKK(Ac)W-NH2
notes: p53-based peptide Ac-RHKKAcW-NH2; also called Trp-5mer; p53-derived peptide substrate; source: synthetic peptide, bought: Biopeptide
